Reference: paper PMC9482650, “Quantitative fragmentomics allow affinity mapping of interactomes” (Nature Communications, 2022)
One block for each binder: values may come before it.

Tests used:
Test in all cases: holdup assay
Set-up in all cases: key: below the threshold = too weak to quantify, mostly under pKd 3.1 to 4
[1] = biological target: NHERF4_1, Q86UT5-2
[2] = biological target: MAGI3_2, Q5TCQ9
[3] = biological target: CASK, O14936
[4] = biological target: Inadl_1, Q8NI35
[5] = biological target: T1, GRIP1_7, Q9Y3R0
T1 sequence (Q9Y3R0 999-1096, limits assumed, looked up): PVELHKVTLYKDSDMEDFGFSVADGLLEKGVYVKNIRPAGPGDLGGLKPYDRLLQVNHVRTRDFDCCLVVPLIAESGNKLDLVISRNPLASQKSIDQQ

[6] = biological target: GRIP2_7, Q9C0E4
[7] = biological target: T2, LNX2_3, Q8N448
T2 sequence (Q8N448 463-564, limits assumed, looked up): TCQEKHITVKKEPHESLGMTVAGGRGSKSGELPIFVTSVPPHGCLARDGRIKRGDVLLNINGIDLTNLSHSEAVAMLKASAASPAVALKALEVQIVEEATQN

[8] = biological target: GORASP1, Q9BQQ3
[9] = biological target: GRID2IP_1, A4D2P6
[10] = biological target: T3, TJP3_3, O95049
T3 sequence (O95049 375-456, limits assumed, looked up): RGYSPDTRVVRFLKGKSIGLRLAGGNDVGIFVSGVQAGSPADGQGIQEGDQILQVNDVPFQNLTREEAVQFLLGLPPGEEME

[11] = biological target: HTRA2, O43464
[12] = biological target: T4, DFNB31_2, Q9P202
T4 sequence (Q9P202 274-371, limits assumed, looked up): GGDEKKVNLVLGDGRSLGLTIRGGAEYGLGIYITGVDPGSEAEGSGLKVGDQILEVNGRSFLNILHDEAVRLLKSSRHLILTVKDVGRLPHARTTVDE

[13] = biological target: TJP1_3, Q07157
[14] = biological target: GRID2IP_2, A4D2P6
[15] = biological target: DLG5_1, Q8TDM6
[16] = biological target: T5, MPP7, Q5T2T1
T5 sequence (Q5T2T1 134-230, limits assumed, looked up): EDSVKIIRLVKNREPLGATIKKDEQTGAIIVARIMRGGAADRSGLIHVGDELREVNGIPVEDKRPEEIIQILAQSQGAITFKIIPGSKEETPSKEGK

[17] = biological target: PICK1, Q9NRD5
[18] = biological target: SCRIB_2, Q14160
[19] = biological target: T6, LIN7C, Q9NUP9
T6 sequence (Q9NUP9 88-185, limits assumed, looked up): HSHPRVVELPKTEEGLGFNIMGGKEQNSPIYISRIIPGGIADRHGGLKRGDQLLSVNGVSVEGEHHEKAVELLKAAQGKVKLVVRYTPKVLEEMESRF

[20] = biological target: T7, MPDZ_10, O75970
T7 sequence (O75970 1624-1722, limits assumed, looked up): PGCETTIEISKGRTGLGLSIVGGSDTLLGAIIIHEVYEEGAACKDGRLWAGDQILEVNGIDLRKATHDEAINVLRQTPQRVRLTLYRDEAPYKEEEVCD

[21] = biological target: TJP1_2, Q07157
[22] = biological target: GRIP2_5, Q9C0E4
[23] = biological target: LNX1_1, Q8TBB1
[24] = biological target: T8, SNTB1, Q13884
T8 sequence (Q13884 107-205, limits assumed, looked up): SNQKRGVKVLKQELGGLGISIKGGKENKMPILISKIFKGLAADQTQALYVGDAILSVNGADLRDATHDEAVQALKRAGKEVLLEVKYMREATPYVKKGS

[25] = biological target: Inadl_10, Q8NI35
[26] = biological target: T9, DFNB31_3, Q9P202
T9 sequence (Q9P202 811-907, limits assumed, looked up): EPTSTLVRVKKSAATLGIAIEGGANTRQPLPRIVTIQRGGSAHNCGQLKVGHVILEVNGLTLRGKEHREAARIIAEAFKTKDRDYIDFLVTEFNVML

[27] = biological target: Inadl_2, Q8NI35
[28] = biological target: Inadl_6, Q8NI35
[29] = plain residues with an end cap or a label only (N-terminal biotin on a linker: ado-ado)
[30] = plain residues with an end cap or a label only (N-terminal biotin on a linker: ahx)
[31] = plain residues with an end cap or a label only (N-terminal biotin on a linker: ttds)

Sequence of MAGI3_2, Q5TCQ9 (Q5TCQ9 398-503): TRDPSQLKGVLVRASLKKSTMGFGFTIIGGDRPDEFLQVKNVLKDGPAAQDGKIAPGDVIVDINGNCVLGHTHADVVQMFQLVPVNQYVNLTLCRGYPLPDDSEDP
Sequence of Inadl_1, Q8NI35 (Q8NI35 113-229): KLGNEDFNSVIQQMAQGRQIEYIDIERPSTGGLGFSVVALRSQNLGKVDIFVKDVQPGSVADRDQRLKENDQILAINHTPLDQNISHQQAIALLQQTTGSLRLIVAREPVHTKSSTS
Sequence of Inadl_10, Q8NI35 (Q8NI35 1673-1763): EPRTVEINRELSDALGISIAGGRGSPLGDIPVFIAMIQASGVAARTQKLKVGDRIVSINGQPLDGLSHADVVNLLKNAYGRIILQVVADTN
Sequence of GORASP1, Q9BQQ3 (Q9BQQ3 1-208): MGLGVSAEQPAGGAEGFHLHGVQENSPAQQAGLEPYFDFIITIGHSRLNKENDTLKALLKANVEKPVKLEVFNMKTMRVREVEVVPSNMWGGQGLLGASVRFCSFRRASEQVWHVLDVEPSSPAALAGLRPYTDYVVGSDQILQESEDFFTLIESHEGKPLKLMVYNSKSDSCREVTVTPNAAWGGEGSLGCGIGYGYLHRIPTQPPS
Sequence of GRID2IP_2, A4D2P6 (A4D2P6 272-370): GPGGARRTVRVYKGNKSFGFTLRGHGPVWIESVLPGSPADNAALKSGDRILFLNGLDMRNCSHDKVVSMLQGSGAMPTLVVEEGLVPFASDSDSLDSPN
Sequence of DLG5_1, Q8TDM6 (Q8TDM6 617-713): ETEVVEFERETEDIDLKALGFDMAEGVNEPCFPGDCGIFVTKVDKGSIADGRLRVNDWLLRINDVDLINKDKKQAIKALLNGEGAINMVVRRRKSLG
Sequence of TJP1_3, Q07157 (Q07157 416-512): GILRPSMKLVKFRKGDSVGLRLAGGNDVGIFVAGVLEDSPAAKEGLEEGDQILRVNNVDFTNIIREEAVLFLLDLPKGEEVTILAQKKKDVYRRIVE
Sequence of GRIP2_7, Q9C0E4 (Q9C0E4 934-1023): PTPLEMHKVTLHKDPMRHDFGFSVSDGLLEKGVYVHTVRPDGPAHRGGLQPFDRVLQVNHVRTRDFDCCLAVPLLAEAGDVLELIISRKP
Sequence of TJP1_2, Q07157 (Q07157 181-274): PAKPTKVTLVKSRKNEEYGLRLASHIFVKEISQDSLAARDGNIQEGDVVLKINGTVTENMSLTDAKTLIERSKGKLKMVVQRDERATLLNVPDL
Sequence of PICK1, Q9NRD5 (Q9NRD5 17-115): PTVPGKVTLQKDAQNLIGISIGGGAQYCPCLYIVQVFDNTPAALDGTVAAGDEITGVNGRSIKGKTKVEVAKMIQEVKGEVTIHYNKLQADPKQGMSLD
Sequence of LNX1_1, Q8TBB1 (Q8TBB1 261-371): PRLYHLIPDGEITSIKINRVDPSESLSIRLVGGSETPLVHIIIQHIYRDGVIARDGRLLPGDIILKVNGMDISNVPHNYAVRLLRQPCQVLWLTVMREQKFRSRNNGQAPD
Sequence of HTRA2, O43464 (O43464 355-458): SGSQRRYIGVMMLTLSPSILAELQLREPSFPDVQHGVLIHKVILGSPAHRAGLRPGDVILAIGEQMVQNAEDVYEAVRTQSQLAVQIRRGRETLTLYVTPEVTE
Sequence of SCRIB_2, Q14160 (Q14160 857-960): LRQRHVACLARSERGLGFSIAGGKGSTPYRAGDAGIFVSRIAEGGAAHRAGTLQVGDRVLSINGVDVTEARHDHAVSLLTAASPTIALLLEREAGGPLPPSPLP
Sequence of GRID2IP_1, A4D2P6 (A4D2P6 1-87): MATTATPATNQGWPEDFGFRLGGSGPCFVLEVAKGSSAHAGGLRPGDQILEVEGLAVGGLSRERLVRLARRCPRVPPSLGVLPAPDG
Sequence of CASK, O14936 (O14936 487-570): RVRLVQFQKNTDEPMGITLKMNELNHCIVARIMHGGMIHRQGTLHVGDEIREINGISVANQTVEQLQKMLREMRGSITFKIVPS
Sequence of Inadl_2, Q8NI35 (Q8NI35 238-335): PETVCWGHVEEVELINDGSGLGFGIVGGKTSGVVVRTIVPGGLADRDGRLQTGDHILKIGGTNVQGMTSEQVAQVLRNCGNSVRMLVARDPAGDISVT
Sequence of GRIP2_5, Q9C0E4 (Q9C0E4 544-642): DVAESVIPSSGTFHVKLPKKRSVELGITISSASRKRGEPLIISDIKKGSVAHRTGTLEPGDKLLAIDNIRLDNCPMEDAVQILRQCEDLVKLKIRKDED
Sequence of Inadl_6, Q8NI35 (Q8NI35 1058-1167): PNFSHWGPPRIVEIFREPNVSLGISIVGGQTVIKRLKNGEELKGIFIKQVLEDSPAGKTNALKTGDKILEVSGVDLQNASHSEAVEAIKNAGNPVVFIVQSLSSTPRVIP
Sequence of NHERF4_1, Q86UT5-2 (Q86UT5 other isoform, or with tags, fused parts or gaps): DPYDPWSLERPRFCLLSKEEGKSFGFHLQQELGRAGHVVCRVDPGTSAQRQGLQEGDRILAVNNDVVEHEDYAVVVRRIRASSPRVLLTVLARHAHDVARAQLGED

- pKd [1, 29]: below the threshold
- pKd [2, 29]: 4.44
- pKd [3, 29]: below the threshold
- pKd [4, 29]: below the threshold
- pKd [5, 29]: below the threshold
- pKd [6, 29]: below the threshold
- pKd [7, 29]: below the threshold
- pKd [8, 29]: below the threshold
- pKd [9, 29]: below the threshold
- pKd [10, 29]: below the threshold
- pKd [11, 29]: below the threshold
- pKd [12, 29]: below the threshold
- pKd [13, 29]: below the threshold
- pKd [14, 29]: below the threshold
- pKd [15, 29]: below the threshold
- pKd [16, 29]: below the threshold
- pKd [17, 29]: 4.21
- pKd [18, 29]: below the threshold
- pKd [19, 29]: below the threshold
- pKd [20, 29]: 3.7
- pKd [21, 29]: below the threshold
- pKd [22, 29]: below the threshold
- pKd [23, 29]: 3.5
- pKd [24, 29]: below the threshold
- pKd [25, 29]: below the threshold
- pKd [26, 29]: below the threshold
- pKd [27, 29]: below the threshold
- pKd [28, 29]: below the threshold
B1: CBY2, Q8NA61 (peptide)
chain: SQDPKKPSRV

- pKd [1, 29]: below the threshold
- pKd [2, 29]: below the threshold
- pKd [3, 29]: below the threshold
- pKd [4, 29]: below the threshold
- pKd [5, 29]: below the threshold
- pKd [6, 29]: below the threshold
- pKd [7, 29]: below the threshold
- pKd [8, 29]: below the threshold
- pKd [9, 29]: below the threshold
- pKd [10, 29]: below the threshold
- pKd [11, 29]: below the threshold
- pKd [12, 29]: below the threshold
- pKd [13, 29]: below the threshold
- pKd [14, 29]: below the threshold
- pKd [15, 29]: below the threshold
- pKd [16, 29]: below the threshold
- pKd [17, 29]: below the threshold
- pKd [18, 29]: below the threshold
- pKd [19, 29]: below the threshold
- pKd [20, 29]: below the threshold
- pKd [21, 29]: below the threshold
- pKd [22, 29]: below the threshold
- pKd [23, 29]: below the threshold
- pKd [24, 29]: below the threshold
- pKd [25, 29]: below the threshold
- pKd [26, 29]: 3.99
- pKd [27, 29]: below the threshold
- pKd [28, 29]: below the threshold
B2: FMNL3, Q8IVF7 (peptide)
chain: DAAHHDESNC

- pKd [1, 30]: 3.51
- pKd [2, 30]: below the threshold
- pKd [3, 30]: 3.79
- pKd [4, 30]: 3.72
- pKd [5, 30]: 4.14
- pKd [6, 30]: 5.77
- pKd [7, 30]: below the threshold
- pKd [8, 30]: below the threshold
- pKd [9, 30]: below the threshold
- pKd [10, 30]: below the threshold
- pKd [11, 30]: below the threshold
- pKd [12, 30]: below the threshold
- pKd [13, 30]: below the threshold
- pKd [14, 30]: below the threshold
- pKd [15, 30]: below the threshold
- pKd [16, 30]: 5.02
- pKd [17, 30]: below the threshold
- pKd [18, 30]: below the threshold
- pKd [19, 30]: below the threshold
- pKd [20, 30]: below the threshold
- pKd [21, 30]: below the threshold
- pKd [22, 30]: below the threshold
- pKd [23, 30]: below the threshold
- pKd [24, 30]: below the threshold
- pKd [25, 30]: below the threshold
- pKd [26, 30]: below the threshold
- pKd [27, 30]: 5.4
- pKd [28, 30]: 3.86
B3: CNTNAP4, Q9C0A0 (peptide)
chain: VNENQKEYFF

- pKd [1, 31]: 3.36
- pKd [2, 31]: 4.76
- pKd [3, 31]: below the threshold
- pKd [4, 31]: below the threshold
- pKd [5, 31]: 3.49
- pKd [6, 31]: below the threshold
- pKd [7, 31]: below the threshold
- pKd [8, 31]: 3.38
- pKd [9, 31]: below the threshold
- pKd [10, 31]: below the threshold
- pKd [11, 31]: below the threshold
- pKd [12, 31]: below the threshold
- pKd [13, 31]: below the threshold
- pKd [14, 31]: 3.69
- pKd [15, 31]: below the threshold
- pKd [16, 31]: below the threshold
- pKd [17, 31]: below the threshold
- pKd [18, 31]: 3.75
- pKd [19, 31]: 3.9
- pKd [20, 31]: below the threshold
- pKd [21, 31]: below the threshold
- pKd [22, 31]: below the threshold
- pKd [23, 31]: below the threshold
- pKd [24, 31]: 3.97
- pKd [25, 31]: below the threshold
- pKd [26, 31]: below the threshold
- pKd [27, 31]: below the threshold
- pKd [28, 31]: below the threshold
B4: RALBP1, Q15311 (peptide)
chain: PSRDRKETSI

- pKd [1, 29]: below the threshold
- pKd [2, 29]: below the threshold
- pKd [3, 29]: below the threshold
- pKd [4, 29]: below the threshold
- pKd [5, 29]: below the threshold
- pKd [6, 29]: below the threshold
- pKd [7, 29]: below the threshold
- pKd [8, 29]: below the threshold
- pKd [9, 29]: below the threshold
- pKd [10, 29]: below the threshold
- pKd [11, 29]: below the threshold
- pKd [12, 29]: below the threshold
- pKd [13, 29]: below the threshold
- pKd [14, 29]: below the threshold
- pKd [15, 29]: below the threshold
- pKd [16, 29]: below the threshold
- pKd [17, 29]: below the threshold
- pKd [18, 29]: below the threshold
- pKd [19, 29]: below the threshold
- pKd [20, 29]: below the threshold
- pKd [21, 29]: below the threshold
- pKd [22, 29]: below the threshold
- pKd [23, 29]: below the threshold
- pKd [24, 29]: below the threshold
- pKd [25, 29]: below the threshold
- pKd [26, 29]: below the threshold
- pKd [27, 29]: below the threshold
- pKd [28, 29]: below the threshold
B5: SLC1A3, P43003 (peptide)
chain: EKPIDSETKM
